Columns and labels:
[1] = target: T1, FP15 A517E (HIV-1 Env fusion peptide 512-526, most …, A517E); assay: peptide or protein array; settings: both partners purified
T1 construct: also called FP15 with Glu at residue 517; source: peptide microarray (PEPperPRINT)
T1 chain: AVGIGEVFLGFLGAA

[2] = target: T2, HIV-1 fusion peptide FP15 (Env residues 512-526, most common sequence) (HIV-1 Env fusion peptide 512-526, most …); assay: peptide or protein array; settings: both partners purified
T2 construct: source: peptide microarray (PEPperPRINT)
T2 chain: AVGIGAVFLGFLGAA

[3] = target: T3, FP15 F519E (HIV-1); assay: peptide or protein array
T3 sequence (peptide): AVGIGAVELGFLGAA

[4] = target: T4, FP15 V518D (HIV-1); assay: peptide or protein array
T4 sequence (peptide): AVGIGADFLGFLGAA

[5] = target: T5, FP15 F519D (HIV-1); assay: peptide or protein array
T5 sequence (peptide): AVGIGAVDLGFLGAA

[6] = target: T6, FP15 A517D (HIV-1); assay: peptide or protein array
T6 sequence (peptide): AVGIGDVFLGFLGAA

[7] = target: T7, FP15 V518E (HIV-1); assay: peptide or protein array
T7 sequence (peptide): AVGIGAEFLGFLGAA

[8] = target: T8, BG505_RnS soluble HIV-1 Env trimer (WT FP sequence) (HIV-1 BG505, UniProt Q2N0S6, stabilised); assay: BLI; ForteBio Octet HTX; IgG loaded on anti-human Fc (AHC) tips at 20 ug/ml for 3 min; Env trimers at 50 ug/ml for 5 min, dissociation in PBS 5 min; corrected response values, triplicates; settings: both partners purified
T8 construct: also called BG505 trimer; not shown: single-chain Fc, N-terminal, cleaved; copies: 3 + 3

[9] = target: T8, BG505_RnS soluble HIV-1 Env trimer (WT …); assay: BLI; settings: both partners purified

B1: ACS202 IgG (antibody, V domains shown)
VH: QVQLVESGGGVVQPGGSLRLSCAASGFAFKDFGMHWVRQAPGKGLEWVAVIGGGHGQHQSYSESVKGRFAITRDNEKNKLYLHMDRLRTEDTAVYYCAKDRLGRPWNIGGRLVYYYYGMDVWGQGTTVTVSS
VL: AIRMTQSPSSLSASVGDRVTITCQASQDIKKSLNWYRQKPGKAPELLIHDASILQTGVPSAFTASGSGTHFSFVINKLQPEDVGTYFCQEYENLQFTFGPGTKVEIK
notes: source: Expi293, transfected, purified (protein A)
Q: For B1, which “fold increase of binding intensity over WT” value [1] is on record?
A: 10 fold

Q: Does B1 bind [2]?
A: binds

Q: What about the fold increase of binding intensity over WT [3] of the same binder?
A: 10 fold

Q: And the fold increase of binding intensity over WT [4]?
A: 10 fold

Q: What about the fold increase of binding intensity over WT [5] of the same binder?
A: 10 fold

Q: And the fold increase of binding intensity over WT [6]?
A: 10 fold

Q: What about the fold increase of binding intensity over WT [7] of the same binder?
A: 10 fold

Q: Does B1 bind [8]?
A: binds

B2: N123-VRC34.01 IgG (antibody, V domains shown)
VH: QEVLVQSGAEVKKPGASVKVSCRAFGYTFTGNALHWVRQAPGQGLEWLGWINPHSGDTTTSQKFQGRVYMTRDKSINTAFLDVTRLTSDDTGIYYCARDKYYGNEAVGMDVWGQGTSVTVSS
VL: IQLTQSPSFLSASVGDKVTITCRASQGVRNELAWYQQKPGKAPNLLIYYASTLQSGVPSRFSATGSGTHFTLTVSSLQPEDFATYFCQHMSSYPLTFGGGTKVEIK
notes: as for B1
Q: Does B2 bind [9]?
A: binds

B3: 0PV-c.01 IgG (antibody, V domains shown)
VH: QVQLVESGPGVVKPSETLSLTCVVSGGTPGRGFLYWSWVRQPPGKGLEWIGGTATNTDITDYNPSLKSRAAISKDTSRNQFLLNLKPLTAGDTAVYYCTSRAKDYRGPSYSRIDVWGPGVLVTVSS
VL: DIVMTQTPLSLPVTPGEPASISCRSSQSLLDSDGNTCLDWFLQKPGQSPQLLIYDVSNRVSGVPDRFSGSGSDTDFTLKISRVEAEDVGVYYCMQFVEFPLTFGGGTKVEIR
notes: as for B1
Q: Does B3 bind [2]?
A: binds

Source: article PMC11602501 (Frontiers in Immunology, 2024)
